Biological target: NS3h_2a(JFH1) helicase, wild type (Hepatitis C virus genotype 2a, isolate …, UniProt Q99IB8 1196-1661)
Test: fluorescence polarization

NS3h_2a(JFH1) helicase, wild type, sequence (Q99IB8 1196-1661): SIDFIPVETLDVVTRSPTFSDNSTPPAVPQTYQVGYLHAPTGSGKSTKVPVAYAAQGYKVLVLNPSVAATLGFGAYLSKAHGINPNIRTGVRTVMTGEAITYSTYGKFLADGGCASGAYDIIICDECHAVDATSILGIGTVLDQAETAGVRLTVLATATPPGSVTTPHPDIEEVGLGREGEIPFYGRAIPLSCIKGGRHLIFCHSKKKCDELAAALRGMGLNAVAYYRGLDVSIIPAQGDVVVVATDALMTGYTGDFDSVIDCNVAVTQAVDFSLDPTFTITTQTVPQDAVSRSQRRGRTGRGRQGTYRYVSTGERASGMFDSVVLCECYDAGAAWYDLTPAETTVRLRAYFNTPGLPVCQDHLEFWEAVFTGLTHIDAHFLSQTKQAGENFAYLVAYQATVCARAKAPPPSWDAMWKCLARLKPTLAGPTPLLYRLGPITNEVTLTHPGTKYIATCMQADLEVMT

TTTTTTTTTTTTTTT (ssDNA) [Cy5-dT15]: binds.

Source: article PMC8532174
